Assays:
[1] = target: T1, human CDH17 on AGS gastric cancer cells and AsPC-1 pancreatic cancer cells (human, UniProt Q12864 23-832); assay: flow cytometry on AGS and AsPC-1 cells
T1 construct: Native CDH17 on the surface of cancer cell lines; also called CDH17 expressing AGS cells; CDH17 expressing AsPC-1 pancreatic cancer cells
T1 sequence: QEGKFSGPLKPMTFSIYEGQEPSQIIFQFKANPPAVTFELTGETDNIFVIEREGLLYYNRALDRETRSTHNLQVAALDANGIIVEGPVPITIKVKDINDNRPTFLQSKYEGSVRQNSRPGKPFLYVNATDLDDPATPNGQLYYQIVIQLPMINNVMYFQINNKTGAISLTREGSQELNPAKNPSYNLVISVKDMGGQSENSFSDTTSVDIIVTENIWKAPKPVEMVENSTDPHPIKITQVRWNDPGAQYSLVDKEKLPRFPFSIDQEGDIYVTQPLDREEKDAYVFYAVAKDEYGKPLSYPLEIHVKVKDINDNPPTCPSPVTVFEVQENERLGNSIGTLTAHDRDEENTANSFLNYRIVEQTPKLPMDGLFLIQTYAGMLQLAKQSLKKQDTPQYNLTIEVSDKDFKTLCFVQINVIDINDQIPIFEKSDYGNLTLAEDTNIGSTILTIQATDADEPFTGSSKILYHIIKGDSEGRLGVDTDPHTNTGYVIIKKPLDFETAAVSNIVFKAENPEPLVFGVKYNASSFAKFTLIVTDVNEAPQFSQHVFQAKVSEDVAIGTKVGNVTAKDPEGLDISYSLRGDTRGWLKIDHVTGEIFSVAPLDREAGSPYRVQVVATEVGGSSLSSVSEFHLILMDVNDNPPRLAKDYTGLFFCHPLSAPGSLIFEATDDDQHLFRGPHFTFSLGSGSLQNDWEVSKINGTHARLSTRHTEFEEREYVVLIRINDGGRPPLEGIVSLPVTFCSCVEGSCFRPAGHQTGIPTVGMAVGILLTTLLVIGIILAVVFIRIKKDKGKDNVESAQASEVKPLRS

[2] = target: T2, recombinant human CDH17 (R&D systems) (human, UniProt Q12864 23-787); assay: ELISA, recombinant human CDH17
T2 construct: Bought recombinant protein coated on the ELISA plate; also called human Cadherin-17
T2 sequence: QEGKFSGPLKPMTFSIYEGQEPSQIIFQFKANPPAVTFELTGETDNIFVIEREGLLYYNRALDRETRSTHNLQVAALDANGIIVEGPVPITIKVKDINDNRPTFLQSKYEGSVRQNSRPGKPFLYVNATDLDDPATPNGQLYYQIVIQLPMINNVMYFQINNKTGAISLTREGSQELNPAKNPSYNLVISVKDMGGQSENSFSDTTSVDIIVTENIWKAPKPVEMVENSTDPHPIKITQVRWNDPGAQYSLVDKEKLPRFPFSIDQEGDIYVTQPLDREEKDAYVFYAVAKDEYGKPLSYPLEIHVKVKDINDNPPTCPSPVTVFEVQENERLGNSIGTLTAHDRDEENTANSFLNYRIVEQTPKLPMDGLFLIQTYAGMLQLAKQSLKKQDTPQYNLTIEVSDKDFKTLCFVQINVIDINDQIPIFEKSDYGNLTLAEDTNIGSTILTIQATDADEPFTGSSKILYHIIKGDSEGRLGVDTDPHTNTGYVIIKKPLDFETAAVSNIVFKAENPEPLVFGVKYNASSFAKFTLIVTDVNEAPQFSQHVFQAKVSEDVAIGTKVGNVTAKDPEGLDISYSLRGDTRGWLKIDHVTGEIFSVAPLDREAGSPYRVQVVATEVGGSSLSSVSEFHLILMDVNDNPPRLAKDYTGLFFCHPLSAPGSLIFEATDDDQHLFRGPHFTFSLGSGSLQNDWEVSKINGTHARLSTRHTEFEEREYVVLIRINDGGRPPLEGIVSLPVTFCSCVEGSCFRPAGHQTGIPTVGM
Protocol: (§1) ELISA-based binding assay was employed to evaluate the binding to CDH17 by anti-CDH17 antibodies. In this assay, 100 μL of […] recombinant human CDH17 (R&D systems) was coated on an ELISA plate. Increasing concentrations of masked and reference mAbs were applied on the plate and their binding to the recombinant human proteins were detected by HRP-conjugated anti-human secondary antibody. […] The expressed anti-CDH17 mAbs had potent binding to CDH17. The anti-CDH17 were tested for binding to AGS gastric cancer cells and AsPC-1 pancreatic cancer cells.

[3] = target: T2, recombinant human CDH17 (R&D systems); assay: ELISA, plate coated with recombinant human CDH17
Protocol: as §1

B1: VHO v372 (VHH)
VHH: EVQLLESGGGLVQPGGSLRLSCAASGFTFSSYWMSWVRQAPGKGLEWVSGINYSGSSTYYADSVKGRFTISRDNSKNTLYLQMNSLRAEDTAVYYCAKWSWLGSDKADFDYWGQGTLVTVSS
notes: Variable-heavy-only (VHO) single domain; also called TS00372
B1: binds [1].

B2: VHO v371 (VHH)
VHH: EVQLLESGGGLVQPGGSLRLSCAASGFTFSNYWMSWVRQAPGKGLEWVSGINGSGGSTYYADSVKGRFTISRDNSKNTLYLQMNSLRAEDTAVYYCAKWHWYGQEKKAFDYWGQGTLVTVSS
notes: Variable-heavy-only (VHO) single domain; also called TS00371
B2: binds [1].

B3: VHO v358 (VHH)
VHH: EVQLLESGGGLVQPGGSLRLSCAASGFTFSDYWMSWVRQAPGKGLEWVSNISGDGGSTYYADSVKGRFTISRDNSKNTLYLQMNSLRAEDTAVYYCAKTTDLLQGAFDYWGQGTLVTVSS
notes: Variable-heavy-only (VHO) single domain; also called TS00358
B3: binds [1]; binds [2].

B4: VHO v347 (VHH)
VHH: EVQLLESGGGLVQPGGSLRLSCAASGFTFSTYAMSWVRQAPGKGLEWVSNISGSGGSTYYADSVKGRFTISRDNSKNTLYLQMNSLRAEDTAVYYCAKEQQWVPGFGFDYWGQGTLVTVSS
notes: Variable-heavy-only (VHO) single domain; also called TS00347
B4: binds [1].

B5: VHO v351 (VHH)
VHH: EVQLLESGGGLVQPGGSLRLSCAASGFTFSSYAMSWVRQAPGKGLEWVSNISGSGSSTYYADSVKGRFTISRDNSKNTLYLQMNSLRAEDTAVYYCAKESQHSPGWGFDYWGQGTLVTVSS
notes: Variable-heavy-only (VHO) single domain; also called TS00351
B5: binds [1].

B6: VHO v374 (VHH)
VHH: EVQLLESGGGLVQPGGSLRLSCAASGFTFSTYWMSWVRQAPGKGLEWVSGINQDGSSTYYADSVKGRFTISRDNSKNTLYLQMNSLRAEDTAVYYCAKWHWAGSSQQFDYWGQGTLVTVSS
notes: VHO single domain; also called TS00374
B6: binds [1].

B7: VHO v376 (VHH)
VHH: EVQLLESGGGLVQPGGSLRLSCAASGFTFSDYWMSWVRQAPGKGLEWVSGINSSGGSTYYADSVKGRFTISRDNSKNTLYLQMNSLRAEDTAVYYCAKWQFVTQPGHKAFDYWGQGTLVTVSS
notes: Variable-heavy-only (VHO) single domain; also called TS00376
B7: binds [1].

B8: VHO v380 (VHH)
VHH: EVQLLESGGGLVQPGGSLRLSCAASGFTFSNYWMSWVRQAPGKGLEWVSGISQSGSSTYYADSVKGRFTISRDNSKNTLYLQMNSLRAEDTAVYYCAKWQFASWRGDKDFDYWGQGTLVTVSS
notes: Variable-heavy-only (VHO) single domain; also called TS00380
B8: binds [1].

B9: VHO v366 (VHH)
VHH: EVQLLESGGGLVQPGGSLRLSCAASGFTFSDYWMSWVRQAPGKGLEWVSNINGDGGSTYYADSVKGRFTISRDNSKNTLYLQMNSLRAEDTAVYYCAKTSTFYKQDKFDYWGQGTLVTVSS
notes: Variable-heavy-only (VHO) single domain; also called TS00366
B9: binds [1]; binds [2].

B10: VHO v364 (VHH)
VHH: EVQLLESGGGLVQPGGSLRLSCAASGFTFSDYWMSWVRQAPGKGLEWVSNISGSGGSTYYADSVKGRFTISRDNSKNTLYLQMNSLRAEDTAVYYCAKTSDWLLHDADLHFDYWGQGTLVTVSS
notes: Variable-heavy-only (VHO) single domain; also called TS00364; CDH17-VHO364
B10: binds [1]; binds [2].

B11: VHO v363 (VHH)
VHH: EVQLLESGGGLVQPGGSLRLSCAASGFTFSTYWMSWVRQAPGKGLEWVSNISQDGGSTYYADSVKGRFTISRDNSKNTLYLQMNSLRAEDTAVYYCAKTTDWLQDKVDEAFDYWGQGTLVTVSS
notes: Variable-heavy-only (VHO) single domain; also called TS00363
B11: binds [1]; binds [2].

B12: CDH17 v5 (antibody, V domains shown)
VH: QVQLVQSGAEVKKPGSSVKVSCKVSGYTFTDHTIHWMKQRPGQGLEWIGYIYPRDVITQYNEKFKGKVTLTADKSTSTAYMELSSLRSEDTAVYLCARWGYFYGSRSYYFDYWGQGTTVTVSS
VL: DIVMTQSQKFMSTTVGDRVNITCKASQNVGTAVAWYQQKPGQSPKLLIYSASNRYTGVPDRFTGSGSGTDFTLTITNMQSKDLADYFCQQYSSYPWTFGGGTKLEIK
notes: typical human IgG heavy and light chain bands on SDS-PAGE
B12: binds [3].

B13: CDH17 v6 (antibody, V domains shown)
VH: QVQLQQSDAELVKPGASVKISCKVSGYTFTDHTIHWMKQRPEQGLEWIGYIYPRDVITQYNEKFKGKATLTADKSSSTAYMQLNSLTSEDSAVYLCARWGYFYGSRSYYFDYWGQGTTLTVSS
VL: DIVMTQSQKFMSTTVGDRVNITCKASQNVGTAVAWYQQKPGQSPKLLIYSASNRYTGVPDRFTGSGSGTDFTLTITNMQSKDLADYFCQQYSSYPWTFGGGTKLEIK
notes: as for B12
B13: binds [3].

B14: VHO v377 (VHH)
VHH: EVQLLESGGGLVQPGGSLRLSCAASGFTFSDYWMSWVRQAPGKGLEWVSAISGDGSSTYYADSVKGRFTISRDNSKNTLYLQMNSLRAEDTAVYYCAKEDWRPGFDYWGQGTLVTVSS
notes: VHO single domain; also called TS00377
B14: binds [1].

B15: VHO v379 (VHH)
VHH: EVQLLESGGGLVQPGGSLRLSCAASGFTFSSYGMSWVRQAPGKGLEWVSNINQSGSSTYYADSVKGRFTISRDNSKNTLYLQMNSLRAEDTAVYYCAKHSHWAHRVLQSFDYWGQGTLVTVSS
notes: Variable-heavy-only (VHO) single domain; also called TS00379
B15: binds [1].

B16: CDH17 v1 (antibody, human IgG1, V domains shown)
VH: EVQLQQSVAELVKPGASVKMSCKVSGYTLTDHTIHWMKQRPEQGLEWIGYIYPRDGITGYNEKFKGKATLTADTSSSTAYMQLNSLTSEDSAVYFCARWGYSYRNYAYYYDYWGQGTTLTVSS
VL: DIVMSQSPSSLAVSVGEKVTMSCKSSQSLLHSSNQKNYLAWYQQKPGQSPKVLIYWASTRESGVPDRFTGSGSGTDFTLTITSVKSEDLAVYYCQQYYSYPWTFGGGTRLEIK
notes: described as human IgG1 monoclonal antibody; also called anti-CDH17 v1
B16: binds [3].

B17: CDH17 v2 (antibody, human IgG1, V domains shown)
VH: QVQLVQSGAEVKKPGSSVKVSCKVSGYTFTDHTIHWMKQRPGQGLEWIGYIYPRDVITQYNEKFKGKVTLTADKSTSTAYMELSSLRSEDTAVYLCARWGYFYGSRSYYFDYWGQGTTVTVSS
VL: DIVMSQSPSSLAVSVGEKVTMSCKSSQSLLHSSNQKNYLAWYQQKPGQSPKVLIYWASTRESGVPDRFTGSGSGTDFTLTITSVKSEDLAVYYCQQYYSYPWTFGGGTRLEIK
notes: described as human IgG1 monoclonal antibody; also called anti-CDH17 v2
B17: binds [3].

B18: CDH17 v3 (antibody, V domains shown)
VH: QVQLQQSDAELVKPGASVKISCKVSGYTFTDHTIHWMKQRPEQGLEWIGYIYPRDVITQYNEKFKGKATLTADKSSSTAYMQLNSLTSEDSAVYLCARWGYFYGSRSYYFDYWGQGTTLTVSS
VL: DIVMSQSPSSLAVSVGEKVTMSCKSSQSLLHSSNQKNYLAWYQQKPGQSPKVLIYWASTRESGVPDRFTGSGSGTDFTLTITSVKSEDLAVYYCQQYYSYPWTFGGGTRLEIK
notes: as for B12
B18: binds [3].

B19: CDH17 v4 (antibody, V domains shown)
VH: EVQLQQSVAELVKPGASVKMSCKVSGYTLTDHTIHWMKQRPEQGLEWIGYIYPRDGITGYNEKFKGKATLTADTSSSTAYMQLNSLTSEDSAVYFCARWGYSYRNYAYYYDYWGQGTTLTVSS
VL: DIVMTQSQKFMSTTVGDRVNITCKASQNVGTAVAWYQQKPGQSPKLLIYSASNRYTGVPDRFTGSGSGTDFTLTITNMQSKDLADYFCQQYSSYPWTFGGGTKLEIK
notes: as for B12
B19: binds [3].
